In PMC10586629:

These substances were tested against EDE1-C10 IgG1 (assay: shotgun alanine-scanning mutagenesis library binding screen). Details: read off a plot.

In order of rising percent of parent:
1. wild-type DENV2 16681 prM/E expressed in HEK-293T cells K310A  -4 % WT
2. wild-type DENV2 16681 prM/E expressed in HEK-293T cells G78A  44 % WT
3. wild-type DENV2 16681 prM/E expressed in HEK-293T cells V308A  53 % WT
4. wild-type DENV2 16681 prM/E expressed in HEK-293T cells V309A  57 % WT
5. wild-type DENV2 16681 prM/E expressed in HEK-293T cells L82A  57 % WT
6. wild-type DENV2 16681 prM/E expressed in HEK-293T cells N153A  61 % WT
7. wild-type DENV2 16681 prM/E expressed in HEK-293T cells Q77A  72 % WT
8. wild-type DENV2 16681 prM/E expressed in HEK-293T cells I113A  73 % WT
9. wild-type DENV2 16681 prM/E expressed in HEK-293T cells V97A  74 % WT
10. wild-type DENV2 16681 prM/E expressed in HEK-293T cells T155A  81 % WT
11. wild-type DENV2 16681 prM/E expressed in HEK-293T cells M6A  82 % WT
